The assay addresses signal regulatory protein a (SIRPa) (mouse) (UniProt P97797). Description: cell-based or functional assay.
Sequence of UniProt P97797 (P97797 32-513): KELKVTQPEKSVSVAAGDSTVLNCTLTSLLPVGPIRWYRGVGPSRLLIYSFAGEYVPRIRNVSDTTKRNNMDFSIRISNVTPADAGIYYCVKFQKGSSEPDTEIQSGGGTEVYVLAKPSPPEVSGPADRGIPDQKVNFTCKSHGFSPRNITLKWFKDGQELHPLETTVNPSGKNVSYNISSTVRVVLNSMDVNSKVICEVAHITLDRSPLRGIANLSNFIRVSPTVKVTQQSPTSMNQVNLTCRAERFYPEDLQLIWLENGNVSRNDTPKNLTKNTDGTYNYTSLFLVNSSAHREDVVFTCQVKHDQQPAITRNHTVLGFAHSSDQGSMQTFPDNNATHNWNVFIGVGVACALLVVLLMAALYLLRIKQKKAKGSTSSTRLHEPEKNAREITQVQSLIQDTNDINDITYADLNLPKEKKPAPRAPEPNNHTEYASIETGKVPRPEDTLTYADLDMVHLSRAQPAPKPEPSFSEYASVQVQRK

“Myc and GFP11-tagged mouse CD47 (CD47-Myc-GFP11) (from UniProt Q61735 19-303)”: the Gectosomes depleted by RAW 264.7 macrophages after 3 h (BlaM activity remaining in the media) is 10 % depleted and the Gectosomes depleted by RAW 264.7 macrophages after 6 h (BlaM activity remaining in the media) stood at 50 % depleted.

These data come from patent US20210309702A1.
